Source: publication PMC9482650, “Quantitative fragmentomics allow affinity mapping of interactomes” (Nature Communications, 2022)

T1: LRRC7, Q96NW7
T1 sequence (Q96NW7 1440-1537, limits assumed, looked up): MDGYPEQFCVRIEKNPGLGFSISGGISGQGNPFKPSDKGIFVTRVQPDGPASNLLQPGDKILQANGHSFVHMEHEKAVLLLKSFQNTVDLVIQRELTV

T2: MPP6, Q9NZW5
T2 sequence (Q9NZW5 125-219, limits assumed, looked up): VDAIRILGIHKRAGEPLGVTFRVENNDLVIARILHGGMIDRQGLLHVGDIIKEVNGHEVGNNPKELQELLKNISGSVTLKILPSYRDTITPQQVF

T3: NHERF3_1, Q5T2W1
T3 sequence (Q5T2W1 4-100, limits assumed, looked up): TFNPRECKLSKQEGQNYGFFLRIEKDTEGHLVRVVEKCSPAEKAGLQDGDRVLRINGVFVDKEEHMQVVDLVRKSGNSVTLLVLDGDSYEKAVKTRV

T4: NHERF3_3, Q5T2W1
T4 sequence (Q5T2W1 238-333, limits assumed, looked up): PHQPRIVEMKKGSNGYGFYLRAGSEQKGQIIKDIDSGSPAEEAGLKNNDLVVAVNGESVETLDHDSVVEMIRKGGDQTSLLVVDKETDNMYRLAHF

T5: PARD3B_1, Q8TEW8
T5 sequence (Q8TEW8 196-299, limits assumed, looked up): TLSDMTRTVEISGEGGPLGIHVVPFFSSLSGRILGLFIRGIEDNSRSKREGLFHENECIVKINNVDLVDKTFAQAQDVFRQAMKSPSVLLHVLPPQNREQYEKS

T6: SNTG1, Q9NSN8
T6 sequence (Q9NSN8 52-150, limits assumed, looked up): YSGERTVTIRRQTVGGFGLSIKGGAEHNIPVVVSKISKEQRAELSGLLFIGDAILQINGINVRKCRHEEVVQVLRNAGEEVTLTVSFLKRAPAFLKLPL

T7: SNTG2, Q9NY99
T7 sequence (Q9NY99 68-166, limits assumed, looked up): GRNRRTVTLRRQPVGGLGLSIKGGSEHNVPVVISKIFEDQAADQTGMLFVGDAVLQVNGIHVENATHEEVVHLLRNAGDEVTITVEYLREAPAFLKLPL

T8: TIAM2, Q8IVF5
T8 sequence (Q8IVF5 885-986, limits assumed, looked up): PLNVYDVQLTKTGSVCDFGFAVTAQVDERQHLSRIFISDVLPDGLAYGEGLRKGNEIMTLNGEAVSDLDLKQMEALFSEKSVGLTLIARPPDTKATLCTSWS


What was measured:
Test in all cases: holdup assay
Set-up in all cases: key: below the threshold = too weak to quantify, mostly under pKd 3.1 to 4
Conditions in all cases: plain residues with an end cap or a label only (N-terminal biotin on a linker: ado-ado)
ARHGEF12, Q9NZN5-2 = target: ARHGEF12, Q9NZN5-2
Sequence of ARHGEF12, Q9NZN5-2 (Q9NZN5 other isoform, or with tags, fused parts or gaps): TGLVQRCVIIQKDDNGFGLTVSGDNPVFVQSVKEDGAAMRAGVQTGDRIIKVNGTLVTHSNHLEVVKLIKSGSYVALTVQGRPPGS

DLG1_2, Q12959 = target: DLG1_2, Q12959
Sequence of DLG1_2, Q12959 (Q12959 314-412): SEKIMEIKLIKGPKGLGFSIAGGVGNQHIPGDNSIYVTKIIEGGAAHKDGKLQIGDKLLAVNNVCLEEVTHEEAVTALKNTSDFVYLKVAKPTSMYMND

DLG1_3, Q12959 = target: DLG1_3, Q12959
Sequence of DLG1_3, Q12959 (Q12959 457-571): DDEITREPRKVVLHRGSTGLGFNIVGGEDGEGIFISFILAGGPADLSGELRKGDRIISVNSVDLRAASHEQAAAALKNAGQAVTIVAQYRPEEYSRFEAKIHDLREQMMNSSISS

DLG4_2, P78352 = target: DLG4_2, P78352
Sequence of DLG4_2, P78352 (P78352 155-259): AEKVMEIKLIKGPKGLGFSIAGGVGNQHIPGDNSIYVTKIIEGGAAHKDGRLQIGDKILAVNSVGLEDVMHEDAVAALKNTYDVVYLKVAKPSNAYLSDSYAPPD

DLG4_3, P78352 = target: DLG4_3, P78352
Sequence of DLG4_3, P78352 (P78352 306-403): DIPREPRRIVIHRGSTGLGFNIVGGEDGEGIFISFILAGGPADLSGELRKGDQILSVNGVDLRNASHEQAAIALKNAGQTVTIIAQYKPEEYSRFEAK

GRASP, Q7Z6J2 = target: GRASP, Q7Z6J2
Sequence of GRASP, Q7Z6J2 (Q7Z6J2 96-193): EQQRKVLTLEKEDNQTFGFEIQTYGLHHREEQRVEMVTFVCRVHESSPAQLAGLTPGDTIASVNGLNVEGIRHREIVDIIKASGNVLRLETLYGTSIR

GRIP2_6, Q9C0E4 = target: GRIP2_6, Q9C0E4
Sequence of GRIP2_6, Q9C0E4 (Q9C0E4 648-740): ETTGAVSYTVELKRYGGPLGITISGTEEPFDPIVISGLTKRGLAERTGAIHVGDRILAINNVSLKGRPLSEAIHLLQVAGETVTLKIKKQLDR

IL16_1, Q14005 = target: IL16_1, Q14005
Sequence of IL16_1, Q14005 (Q14005 210-306): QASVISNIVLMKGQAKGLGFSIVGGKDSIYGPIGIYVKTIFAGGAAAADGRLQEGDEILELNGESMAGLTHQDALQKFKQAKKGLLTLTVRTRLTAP

IL16_4, Q14005 = target: IL16_4, Q14005
Sequence of IL16_4, Q14005 (Q14005 1229-1329): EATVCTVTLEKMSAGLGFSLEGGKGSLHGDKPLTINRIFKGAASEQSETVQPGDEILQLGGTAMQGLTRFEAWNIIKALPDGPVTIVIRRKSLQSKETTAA

Inadl_1, Q8NI35 = target: Inadl_1, Q8NI35
Sequence of Inadl_1, Q8NI35 (Q8NI35 113-229): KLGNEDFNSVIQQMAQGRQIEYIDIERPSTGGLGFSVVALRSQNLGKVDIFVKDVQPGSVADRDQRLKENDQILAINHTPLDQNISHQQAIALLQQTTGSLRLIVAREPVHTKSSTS

Inadl_3, Q8NI35 = target: Inadl_3, Q8NI35
Sequence of Inadl_3, Q8NI35 (Q8NI35 359-469): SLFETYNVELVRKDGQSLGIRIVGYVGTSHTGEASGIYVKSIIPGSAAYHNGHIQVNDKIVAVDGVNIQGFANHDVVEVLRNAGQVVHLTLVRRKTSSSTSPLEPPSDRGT

LAP2, Q96RT1 = target: LAP2, Q96RT1
Sequence of LAP2, Q96RT1 (Q96RT1 other isoform, or with tags, fused parts or gaps): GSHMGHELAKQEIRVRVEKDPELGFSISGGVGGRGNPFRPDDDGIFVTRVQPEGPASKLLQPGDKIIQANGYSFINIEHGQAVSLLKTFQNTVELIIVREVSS

LDB3, O75112 = target: LDB3, O75112
Sequence of LDB3, O75112 (O75112 1-94): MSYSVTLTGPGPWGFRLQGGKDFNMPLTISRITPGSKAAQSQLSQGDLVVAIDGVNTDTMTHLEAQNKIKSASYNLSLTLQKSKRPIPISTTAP

LIMK2, P53671 = target: LIMK2, P53671
Sequence of LIMK2, P53671 (P53671 143-248): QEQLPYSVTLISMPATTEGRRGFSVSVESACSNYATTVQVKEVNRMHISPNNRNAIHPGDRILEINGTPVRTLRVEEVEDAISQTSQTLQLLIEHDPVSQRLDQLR

LRRC7, Q96NW7 = target: T1, LRRC7, Q96NW7
MAST2, Q6P0Q8 = target: MAST2, Q6P0Q8
Sequence of MAST2, Q6P0Q8 (Q6P0Q8 1099-1202): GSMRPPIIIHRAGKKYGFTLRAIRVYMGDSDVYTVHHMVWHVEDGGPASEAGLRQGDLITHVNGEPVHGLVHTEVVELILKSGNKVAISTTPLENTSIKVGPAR

MPP6, Q9NZW5 = target: T2, MPP6, Q9NZW5
NHERF3_1, Q5T2W1 = target: T3, NHERF3_1, Q5T2W1
NHERF3_3, Q5T2W1 = target: T4, NHERF3_3, Q5T2W1
NHERF4_4, Q86UT5 = target: NHERF4_4, Q86UT5
Sequence of NHERF4_4, Q86UT5 (Q86UT5 464-550): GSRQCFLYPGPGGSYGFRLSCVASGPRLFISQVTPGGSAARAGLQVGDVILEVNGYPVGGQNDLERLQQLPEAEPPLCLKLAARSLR

PARD3B_1, Q8TEW8 = target: T5, PARD3B_1, Q8TEW8
PARD3_3, Q8TEW0 = target: PARD3_3, Q8TEW0
Sequence of PARD3_3, Q8TEW0 (Q8TEW0 582-685): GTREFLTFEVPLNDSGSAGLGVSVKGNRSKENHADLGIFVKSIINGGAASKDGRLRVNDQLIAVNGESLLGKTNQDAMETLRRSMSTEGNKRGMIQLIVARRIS

PICK1, Q9NRD5 = target: PICK1, Q9NRD5
Sequence of PICK1, Q9NRD5 (Q9NRD5 17-115): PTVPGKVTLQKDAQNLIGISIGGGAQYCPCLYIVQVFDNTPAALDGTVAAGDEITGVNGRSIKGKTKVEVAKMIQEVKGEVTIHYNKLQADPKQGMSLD

PTPN3, P26045 = target: PTPN3, P26045
Sequence of PTPN3, P26045 (P26045 505-587): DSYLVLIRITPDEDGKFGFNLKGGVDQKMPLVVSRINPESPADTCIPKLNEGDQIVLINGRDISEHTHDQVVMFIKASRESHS

SCRIB_1, Q14160 = target: SCRIB_1, Q14160
Sequence of SCRIB_1, Q14160 (Q14160 718-814): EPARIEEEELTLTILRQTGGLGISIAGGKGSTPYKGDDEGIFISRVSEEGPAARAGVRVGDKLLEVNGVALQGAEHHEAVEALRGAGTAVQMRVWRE

SCRIB_3, Q14160 = target: SCRIB_3, Q14160
Sequence of SCRIB_3, Q14160 (Q14160 999-1103): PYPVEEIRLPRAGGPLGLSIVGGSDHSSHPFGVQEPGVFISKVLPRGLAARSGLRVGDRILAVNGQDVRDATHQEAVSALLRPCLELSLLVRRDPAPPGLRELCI

SNTG1, Q9NSN8 = target: T6, SNTG1, Q9NSN8
SNTG2, Q9NY99 = target: T7, SNTG2, Q9NY99
TIAM2, Q8IVF5 = target: T8, TIAM2, Q8IVF5
TJP1_3, Q07157 = target: TJP1_3, Q07157
Sequence of TJP1_3, Q07157 (Q07157 416-512): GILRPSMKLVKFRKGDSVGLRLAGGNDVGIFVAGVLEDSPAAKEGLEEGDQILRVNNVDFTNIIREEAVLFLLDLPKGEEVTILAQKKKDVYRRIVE

Binder | pKd (ARHGEF12, Q9NZN5-2) | pKd (DLG1_2, Q12959) | pKd (DLG1_3, Q12959) | pKd (DLG4_2, P78352) | pKd (DLG4_3, P78352) | pKd (GRASP, Q7Z6J2) | pKd (GRIP2_6, Q9C0E4) | pKd (IL16_1, Q14005) | pKd (IL16_4, Q14005) | pKd (Inadl_1, Q8NI35) | pKd (Inadl_3, Q8NI35) | pKd (LAP2, Q96RT1) | pKd (LDB3, O75112) | pKd (LIMK2, P53671) | pKd (LRRC7, Q96NW7) | pKd (MAST2, Q6P0Q8) | pKd (MPP6, Q9NZW5) | pKd (NHERF3_1, Q5T2W1) | pKd (NHERF3_3, Q5T2W1) | pKd (NHERF4_4, Q86UT5) | other results
IKAIVDLTGL [TRAF2, Q12933] | 3.5 | below the threshold | below the threshold | below the threshold | below the threshold | 3.94 | below the threshold | below the threshold | below the threshold | below the threshold | below the threshold | below the threshold | below the threshold | below the threshold | below the threshold | 5.48 | 3.49 | 4.56 | below the threshold | below the threshold | pKd (PARD3B_1, Q8TEW8): below the threshold; pKd (PARD3_3, Q8TEW0): below the threshold; pKd (PICK1, Q9NRD5): below the threshold; pKd (PTPN3, P26045): 3.91; pKd (SCRIB_1, Q14160): below the threshold; pKd (SCRIB_3, Q14160): below the threshold; pKd (SNTG1, Q9NSN8): below the threshold; pKd (SNTG2, Q9NY99): below the threshold; pKd (TIAM2, Q8IVF5): below the threshold; pKd (TJP1_3, Q07157): below the threshold
PRAEAEDSFL [PDGFRB, P09619] | 3.63 | 3.57 | 3.54 | 3.48 | below the threshold | 3.58 | below the threshold | below the threshold | below the threshold | below the threshold | below the threshold | 3.53 | 3.67 | below the threshold | 3.92 | 5.62 | 3.93 | 4.76 | below the threshold | 4.03 | pKd (PARD3B_1, Q8TEW8): 4.55; pKd (PARD3_3, Q8TEW0): 4.11; pKd (PICK1, Q9NRD5): 4.2; pKd (PTPN3, P26045): 4.45; pKd (SCRIB_1, Q14160): 3.76; pKd (SCRIB_3, Q14160): 4.06; pKd (SNTG1, Q9NSN8): below the threshold; pKd (SNTG2, Q9NY99): below the threshold; pKd (TIAM2, Q8IVF5): below the threshold; pKd (TJP1_3, Q07157): below the threshold

Continued, in another order:

pKd (ARHGEF12, Q9NZN5-2) | pKd (DLG1_2, Q12959) | pKd (DLG1_3, Q12959) | pKd (DLG4_2, P78352) | pKd (DLG4_3, P78352) | pKd (GRASP, Q7Z6J2) | pKd (GRIP2_6, Q9C0E4) | pKd (IL16_1, Q14005) | pKd (IL16_4, Q14005) | pKd (Inadl_1, Q8NI35) | pKd (Inadl_3, Q8NI35) | pKd (LAP2, Q96RT1) | pKd (LDB3, O75112) | pKd (LIMK2, P53671) | pKd (LRRC7, Q96NW7) | pKd (MAST2, Q6P0Q8) | pKd (MPP6, Q9NZW5) | pKd (NHERF3_1, Q5T2W1) | pKd (NHERF3_3, Q5T2W1) | pKd (NHERF4_4, Q86UT5) | Binder | other results
3.64 | below the threshold | below the threshold | below the threshold | below the threshold | below the threshold | below the threshold | below the threshold | below the threshold | below the threshold | below the threshold | below the threshold | below the threshold | below the threshold | below the threshold | 4.66 | below the threshold | 4.78 | below the threshold | 3.5 | EKKTLIGIKL [GOT1L1, Q8NHS2] | pKd (PARD3B_1, Q8TEW8): 4.74; pKd (PARD3_3, Q8TEW0): below the threshold; pKd (PICK1, Q9NRD5): 4.14; pKd (PTPN3, P26045): below the threshold; pKd (SCRIB_1, Q14160): below the threshold; pKd (SCRIB_3, Q14160): below the threshold; pKd (SNTG1, Q9NSN8): below the threshold; pKd (SNTG2, Q9NY99): below the threshold; pKd (TIAM2, Q8IVF5): 3.57; pKd (TJP1_3, Q07157): below the threshold
4.66 | below the threshold | below the threshold | below the threshold | below the threshold | 4 | below the threshold | below the threshold | below the threshold | below the threshold | below the threshold | below the threshold | below the threshold | below the threshold | below the threshold | 5.4 | below the threshold | 4.72 | below the threshold | below the threshold | SARSRLSSNL [HCN2, Q9UL51] | pKd (PARD3B_1, Q8TEW8): 3.71; pKd (PARD3_3, Q8TEW0): below the threshold; pKd (PICK1, Q9NRD5): below the threshold; pKd (PTPN3, P26045): 4.16; pKd (SCRIB_1, Q14160): 4.36; pKd (SCRIB_3, Q14160): 4.32; pKd (SNTG1, Q9NSN8): below the threshold; pKd (SNTG2, Q9NY99): below the threshold; pKd (TIAM2, Q8IVF5): below the threshold; pKd (TJP1_3, Q07157): below the threshold
3.63 | below the threshold | below the threshold | below the threshold | below the threshold | below the threshold | below the threshold | below the threshold | below the threshold | below the threshold | below the threshold | below the threshold | below the threshold | below the threshold | below the threshold | below the threshold | below the threshold | below the threshold | below the threshold | below the threshold | EALLQMESVA [CAVIN3, Q969G5] | pKd (PARD3B_1, Q8TEW8): below the threshold; pKd (PARD3_3, Q8TEW0): below the threshold; pKd (PICK1, Q9NRD5): below the threshold; pKd (PTPN3, P26045): below the threshold; pKd (SCRIB_1, Q14160): 3.56; pKd (SCRIB_3, Q14160): below the threshold; pKd (SNTG1, Q9NSN8): below the threshold; pKd (SNTG2, Q9NY99): below the threshold; pKd (TIAM2, Q8IVF5): 4.12; pKd (TJP1_3, Q07157): below the threshold
